T1: ^187Ntrp-Sec62p (Saccharomyces cerevisiae, UniProt P21825 2-274)
T1 construct: whole, on cells; Expressed in yeast EGY48 from pRS315CUP1 under the PCUP1-promoter; not shown: 6x His tag at the N-terminus of Ntrp
T1 sequence: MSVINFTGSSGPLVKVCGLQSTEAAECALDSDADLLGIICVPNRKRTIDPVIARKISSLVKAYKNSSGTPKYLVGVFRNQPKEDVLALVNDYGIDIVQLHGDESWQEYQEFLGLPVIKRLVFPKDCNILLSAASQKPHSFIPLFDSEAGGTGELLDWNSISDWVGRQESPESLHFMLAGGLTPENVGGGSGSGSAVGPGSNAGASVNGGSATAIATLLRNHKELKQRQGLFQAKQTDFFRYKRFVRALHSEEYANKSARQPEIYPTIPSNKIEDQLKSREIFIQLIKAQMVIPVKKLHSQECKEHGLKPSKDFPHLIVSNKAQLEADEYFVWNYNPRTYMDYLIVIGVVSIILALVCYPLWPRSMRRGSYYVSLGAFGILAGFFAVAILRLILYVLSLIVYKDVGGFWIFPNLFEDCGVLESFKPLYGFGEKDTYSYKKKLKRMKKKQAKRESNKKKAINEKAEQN

T2: Sec63p-^44Ctrp (Saccharomyces cerevisiae, UniProt P14906 1-663)
T2 construct: whole, on cells; Expressed in yeast EGY48 from pRS316CUP1 under the PCUP1-promoter; also called Sec63p-Ctrp; SEC63-^44Ctrp; not shown: HA tag at the C terminus of Trp1p
T2 sequence: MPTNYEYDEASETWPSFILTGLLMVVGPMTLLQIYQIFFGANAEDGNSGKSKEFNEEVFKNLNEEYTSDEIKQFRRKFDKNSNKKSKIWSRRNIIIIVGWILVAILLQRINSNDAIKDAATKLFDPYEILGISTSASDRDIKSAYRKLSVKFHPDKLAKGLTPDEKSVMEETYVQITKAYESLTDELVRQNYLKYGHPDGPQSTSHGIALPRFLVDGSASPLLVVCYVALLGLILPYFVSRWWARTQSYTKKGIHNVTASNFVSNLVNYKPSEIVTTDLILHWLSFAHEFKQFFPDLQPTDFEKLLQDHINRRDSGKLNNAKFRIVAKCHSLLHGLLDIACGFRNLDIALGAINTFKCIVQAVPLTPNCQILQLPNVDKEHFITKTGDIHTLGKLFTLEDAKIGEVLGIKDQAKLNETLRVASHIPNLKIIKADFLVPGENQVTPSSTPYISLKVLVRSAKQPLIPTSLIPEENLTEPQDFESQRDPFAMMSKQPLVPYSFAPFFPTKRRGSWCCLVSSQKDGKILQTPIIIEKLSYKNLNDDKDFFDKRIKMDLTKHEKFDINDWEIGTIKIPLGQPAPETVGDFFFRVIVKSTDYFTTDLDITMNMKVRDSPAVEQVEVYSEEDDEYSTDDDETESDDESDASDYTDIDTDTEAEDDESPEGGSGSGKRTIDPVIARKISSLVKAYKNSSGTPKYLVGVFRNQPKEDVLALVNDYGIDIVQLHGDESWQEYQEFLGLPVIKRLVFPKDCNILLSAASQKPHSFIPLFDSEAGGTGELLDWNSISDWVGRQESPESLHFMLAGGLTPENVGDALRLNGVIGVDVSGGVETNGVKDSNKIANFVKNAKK

T3: Ste14p-^44Ctrp (Saccharomyces cerevisiae, UniProt P32584 1-239)
T3 construct: whole, on cells; Control fusion; Ctrp fused to the cytoplasmic site of Ste14p; also called Ste14p-Ctrp; STE14-^44Ctrp; not shown: HA tag at the C terminus of Trp1p
T3 sequence: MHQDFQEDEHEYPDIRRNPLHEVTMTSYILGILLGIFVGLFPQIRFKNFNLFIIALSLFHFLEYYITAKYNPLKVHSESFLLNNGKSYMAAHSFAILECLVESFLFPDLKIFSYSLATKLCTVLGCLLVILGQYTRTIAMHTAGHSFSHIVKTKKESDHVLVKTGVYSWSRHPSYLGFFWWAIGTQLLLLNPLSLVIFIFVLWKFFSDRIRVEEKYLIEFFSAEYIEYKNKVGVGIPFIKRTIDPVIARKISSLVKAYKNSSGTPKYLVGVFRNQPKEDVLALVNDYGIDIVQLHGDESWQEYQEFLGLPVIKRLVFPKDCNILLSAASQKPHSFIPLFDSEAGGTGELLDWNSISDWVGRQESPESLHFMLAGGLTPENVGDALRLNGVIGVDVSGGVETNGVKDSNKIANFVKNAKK


Key:
Assay in all cases: split-Trp growth complementation in trp1 yeast EGY48
[1] = biological target: T1, ^187Ntrp-Sec62p
Text: (§1) To monitor the interaction between Sec62p and Sec63p, trp1 yeast strains expressing pairs of matching Nₜᵣₚ-Sec62p and Sec63p-Cₜᵣₚ fusion proteins were spotted on selective plates lacking tryptophan (FIG. 5). […] To verify that the observed complementation of tryptophan auxotrophy is a result of the interaction between the Sec62p and Sec63p moieties of the fusion proteins, we fused the C-terminal fragments of split-Trp⁴⁴ and split-Trp¹⁸⁷ to the cytoplasmic site of Ste14p (FIG. 4B). Ste14p is a membrane protein of the ER that is known to interact with neither Sec62p nor Sec63p (FIG. 4B) (cf. Wittke, S., Lewke, N., Muller, S., and Johnsson, N. (1999), Mol Biol Cell 10, 2519-2530). No growth on plates lacking tryptophan was observed when matching pairs of Sec62p and Ste14p fusion proteins were co-expressed at 23° C. or 30° C. for 10 days (FIG. 5). The cellular amount of Ste14p-⁴⁴Cₜᵣₚ is roughly 2-3 fold lower than the amount of Sec63p-⁴⁴Cₜᵣₚ as determined by western blotting (data not shown). Since this relatively small effect cannot account for the clear growth difference between the strains expressing either ⁴⁴Nₜᵣₚ-Sec62p/Sec63p-⁴⁴Cₜᵣₚ or ⁴⁴Nₜᵣₚ-Sec62p/Ste14p-⁴⁴Cₜᵣₚ, we conclude that the ⁴⁴Nₜᵣₚ-Sec62p/Sec63p-⁴⁴Cₜᵣₚ interaction signal is specific.

[2] = biological target: T2, Sec63p-^44Ctrp
Text: as §1

[3] = biological target: T3, Ste14p-^44Ctrp
Text: as §1

Binder | binding result [1] | binding result [2] | binding result [3]
Ste14p-^187Ctrp (other, Saccharomyces cerevisiae, whole, on cells; Control fusion; Ctrp fused to the cytoplasmic site of Ste14p; also called Ste14p-Ctrp; not shown: HA tag at the C terminus of Trp1p) MHQDFQEDEHEYPDIRRNPLHEVTMTSYILGILLGIFVGLFPQIRFKNFNLFIIALSLFHFLEYYITAKYNPLKVHSESFLLNNGKSYMAAHSFAILECLVESFLFPDLKIFSYSLATKLCTVLGCLLVILGQYTRTIAMHTAGHSFSHIVKTKKESDHVLVKTGVYSWSRHPSYLGFFWWAIGTQLLLLNPLSLVIFIFVLWKFFSDRIRVEEKYLIEFFSAEYIEYKNKVGVGIPFIDALRLNGVIGVDVSGGVETNGVKDSNKIANFVKNAKK | no binding | – | –
^44Ntrp-Sec62p (other, Saccharomyces cerevisiae, whole, on cells; Expressed in yeast EGY48 from pRS315CUP1 under the PCUP1-promoter; Ntrp at the N terminus of Sec62p; not shown: 6x His tag at the N-terminus of Ntrp) MSVINFTCSSGPLVKVCGLQSTEAAECALDSDADLLGIICVPNRGGSGSGSAVGPGSNAGASVNGGSATAIATLLRNHKELKQRQGLFQAKQTDFFRYKRFVRALHSEEYANKSARQPEIYPTIPSNKIEDQLKSREIFIQLIKAQMVIPVKKLHSQECKEHGLKPSKDFPHLIVSNKAQLEADEYFVWNYNPRTYMDYLIVIGVVSIILALVCYPLWPRSMRRGSYYVSLGAFGILAGFFAVAILRLILYVLSLIVYKDVGGFWIFPNLFEDCGVLESFKPLYGFGEKDTYSYKKKLKRMKKKQAKRESNKKKAINEKAEQN | – | binds | no binding
